Experiments:
[1] = target: 33 amino acid myc-epitope peptide coded for by RNA124; assay: immunoprecipitation of in vitro translated peptide, lane 4 (dilution buffer wash)
[2] = target: 33 amino acid myc-epitope peptide coded for by RNA124; assay: immunoprecipitation of myc-epitope peptide compared with β-globin translation product
[3] = target: c-myc monoclonal antibody 9E10; assay: immunoprecipitation with 9E10 and protein A-sepharose, acetic acid elution
[4] = target: c-myc monoclonal antibody 9E10; assay: competitive immunoprecipitation, 35S-labeled fusion, competitor unlabeled synthetic myc peptide

Chain of 33 amino acid myc-epitope peptide coded for by RNA124 (peptide, as listed by the source): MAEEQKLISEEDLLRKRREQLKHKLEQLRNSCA

percent of the total TCA precipitable counts isolated [1]	purification (fold) against β-globin protein [2]	percentage bound to the anti-myc antibody [3]	percent bound in the presence of unlabeled myc peptide [4]	Substance
83%	> 100 fold			c-myc monoclonal antibody 9E10
		35%	9%	wild type c-myc fusion construct (peptide)

Source: US20040253612A1
